Assay [1] deals with β2AR–Rluc8 (UniProt P07550). Nature of the assay: FRET or BRET; intact HEK 293 cells with agonist; receptor–Rluc8 or receptor–Nluc as donor, NES–venus–mG as acceptor; net BRET; DPBS, 96-well plates. (BRET reads energy transfer from a luciferase to a nearby fluorophore.)
In assay [2] the target is cerulean–β2AR (UniProt P07550). Description: calibrated confocal fluorescence intensities at the plasma membrane; HEK 293 cells expressing cerulean-β2AR and venus–mGs, 10 μM isoproterenol, steady state; venus and cerulean intensities calibrated with the standard protein cerulean–TM–venus; n = 17.
Assay [3] addresses β2AR–SmBit (UniProt P07550). Description: split reporter (BiFC, NanoBiT); NanoLuc complementation in intact HEK 293 cells cotransfected with receptor–SmBit and LgBit–mG; total luminescence with furimazine against agonist concentration.

As to NES–venus–mGs (domain or fragment), the time to dissociate after addition of the inverse agonist ICI 118,551 in assay [1] was greater than 15 min.

venus–mGs (domain or fragment) returned a stoichiometry N (venus–mGs per cerulean–β2AR) in assay [2] of 1.17.

In assay [3], LgBit–mGs registered a fold increase in luminescence intensity on agonist stimulation of less than 20 fold.
